The domain aggregation screens of Martell et al. (2025)

Test: soluble fraction after stress (log2 fold change); higher = more stays soluble; pooled small domains, quantitative proteomics
Conditions: stress: pH 4
Method in brief: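 Small protein domains from pooled custom libraries were exposed to pH 4, then quantified with high-throughput quantitative proteomics. The fold change in how much of each domain remains soluble is read as aggregation propensity. It is given as log2, with higher values meaning more stayed soluble.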

Sequence | soluble fraction (log2)
HMEVVVPEDLDAALQQASRAQSFFSSLSYTHKKEYVAWINEAKRAETRAMRIQKTITMLESGQRGH | 0.28
HMDYINALTTAGITDAKVIVTAPFDVSGTAALTGIYKAYEDITGSSLNEIAKAVGVEELITTGNLA | 0.2
HMESSSQLGFELARLVESGNDEEARALVQAKELSEADERKWLYHLGNLLHAAGRPLQASAIWREVGT | -0.436
HMVGAEDISKPMNLGALMRTAHAFGASFFFTINAHPKVRHAYNSDTSRSFDHMPYYPWDTMEE | -0.287
HMNDNTAINEFKKMVFTRMVHLQIDNAELSKLSGVTNSKILALKYGNSNTLKLGDIVKVAKTLNINLNDL | 0.094
HMGYTTSFVVQLKNAVSISFDEIDQNLRKLPGVEDVVIVEEAAMAYLKVDRQHFREEQLAHFEFVRQ | -1.6
HMANYHDIAADLRSKINHGFYEEEKKLPKQSELAADYQTSRVTIQKALNILQMEGIIYGKKGTGTFIRDSY | 0.0346
HMDPKISWESDEKLSANIGHYENSIKPLMGNKYLIELSQLKDKIESHPWVARATIKRIFWNKIHIQLESHD | 0.108
HMSKQDRRIRRTRRLLKESLIQLMQEKEFMNISVREVTERADLNRGTFYLHYQDTRHLLQDIENETL | -1.86
HMDAEKHIVTPEAGLRLDRALTDALPNLSRSRVKQLINEGLVTTENKTITAPSYRVKYGDSFEISIPPPT | -0.134
HMGIKYTNQRVEILNFLKDNLSHPTVDDVYEGVKKKLTRISKATVYQNLKFLASKGLIQEVNIKGVSRFEP | 0.22
HMAFKNGLLQTSKKVTLVRKVDGVTMRFDSLRAASVFLGRNKGYLSNVIKNGRTLDNYEIVVGE | 0.0346
HMQDTYLYPVQHNGKVRLQVELPAKGLPEDLVRLALAHPKVVEWLNGRIPTKTIAVPGRIINMVLPNQ | 0.18
HMDYRSMSGLQKAALLIMSVGEETAAKLFQLMHDDEIREISQTMANLGTVNATVIERLFVEFADAISS | -0.935
HMSLRVIEIFGTPQQMSARISLMDGSVTDVKVGQSIPGTSYKVASITGNGVWIQNGTAVSYTHL | 0.00817
HMDPSKMKIDELEIATRTATALADGGIKSVAGLIRKSASALKELDGVGDKAIAEITEALEKLGLELKG | -0.157
HMKYYIYQGVGASGELTKIAEVTDQKTYTVTGLQAKTTYRFAVSSYNGLRESTKSNIVTVTT | 0.22
HMISVENLSNREFEIFQLIGNGFSTKEMAKKLNLSIYTVESHKKNIKEKLKLKNSSDLSKYAIQWVIMQN | -1.35
HMDEMPVEFVKISIKAGHPWENRKIKDLASLPDLLLVLILRGEERIIPNGNTVVLAGDKIVLSALSPE | -1.94
HMTRHIQVNDSIASTPIEDVYFSTRTYNALLNNGISVIGDLSKYTHDDLYASFQGLGRAGVLEIEAYLRQD | -1.32
HMLHSEDATVVRQAIPLLERHVDAATVAVARRNLAQLEQFGRYPRRNQALGRISNPAENAYLRAER | -0.0503
HMDPEQLKIAINTKMPFGKYSGRPLLLLPEPYLVWFKQQGFPDSKLGSQLAMMYEVKLNGLEQMLMPLL | -0.506
HMWDEMKDQKLVEALLLLREDERKLIYQHVFEERTFDDISRINGLPPYKVKGIYYYAIRKIRKWMG | -0.425
HMDAVTPVLSRIRDARFKRMVLPGDEIEISVTLIDTIGKFFNLSGQIRNKDKISLTVNFALALV | 0.0905
HMPQEMIEILATPNGWLRVRQGPGTNYPEITKVNSGEEFPLLEEKDSWFKIRIEEGQEGWISSQYAQKEE | -0.0319
HMKSIRIPFILTEGPNSQKITIDIDSDEEFRIGDVFDEDDKLWSINQILISGDRKAKMAIASEVTSISALR | -0.797
HMLEQISDINILSGYAKEVIAENPKTVSDYLSGKAAAFQALVGQVMKKTGGRGNPVIIQEILKRLIHKK | -0.182
HMFEERKKDWNLTGLLDDVIRRYIHQLTNDELNEINLEKSSGMPDEEIKNGIKLPLAVMQQRRETWGS | -0.308

Sequence | soluble fraction (log2)
HMQERNYIVRRGDTLWDLAKTYYGSGTKYTVIYDANRDNIEAEAKRRGKQSSNGGYWIYPGTELTI | -0.0819
HMGYLNDRQRLIKDFITENQPLKVSDLVKQFPNIGLSTLKKDLQYLRGEQVLTMIGKGKGSVYVLNKK | ≥ 0.43
HMHDHKTRLQELAAQRFGSAPSYLLTADGPAHDRRFHASVEVGGRSFGPGTGKSKKRAEQVAAHIAWDALS | 0.415
HMTVKEVGYDTFLTMLDKKEIKQVQVEDNQIIFSDNADPVNYYKTGVFNDPDLVNRLQDAGVEFG | -0.37
HMGLNEGLNEGQQKVIQHIQENEGIKVKEISLKLNMPIDTVDRHIRVLKNLNLIERRGSRKTGGYFISN | 0.111
HMDLMKKTLTKEMLLIDFMKQQFPDSSTNKLRKMLSSGRVKINNLITHKAKSQLKLGDIFELANKPHD | 0.124
HMIVNTTRAPYLLGETEQDAMRLARQAGLVPEIVRQSSAEPAGTVILQSHDFDYRMRRGSVILITVSTGPL | 0.22
HMQISDAGALLDAVRRVLAENPAQVEQFRAGKEKVMGFLVGQVMRATGGKANPQMLNDVLREELS | 0.198
HMSMSKISNLLEIMMIIQYKGLTTASELAQSLGVDKKTVYRYINSLSKANIPIYTKKGRYGGFYIDKNF | 0.138
HMTMRFVVADGQNFGSIAQSKALEAVKKGNTEFNYKDVDYTVDIQSDDFYVVYQGRDIMGYASR | -1.89
HMSDPVKQVAMRILDLREISDYTVDKMAEVLNVPVEEYRKYESGEVDMPISFLVKIGEVFHVDMTELLTG | -0.679
HMRAVEGKRLKRLLRTNLIAIERDQILQYPLRKRPLAIVTRAVRATNPDAVIVNDAGDDVFARALDVLLAS | -1.23
HMQSAMALTKDLIEQQGKYYHRGQPFTGVGFAKNKKGKFVTEEPFKNGLLHGKRVNYDHNGHVLAREK | -0.12
HMKKDLATYAYEHIKQMVIDRELMPGERIQQEVLARELGISRTPLVTALNRLASENLVELEANKGFSVRRF | 0.429
HMATPSTGQVSVVRLNLRVSPSISSPVVTRLTQGDTVKILAASDDGRWYKVATADGRTGWLYTIYITAE | -0.209
HMLPDSQLMKEATAWFMRQAADDFSGAERRRLDAWRAQSPAHARAYHQVQALWNAPELQQAAAR | -0.0106
HMQNKFLDIVGEIEVKAVDYYLLKDTSGLVIKFPKNLVFANGLKIADNKIGLTVSLYGAWVHEET | -0.498
HMAAVPYQVKITTEDLRIRTGPGTNHDFTGQYTGKGVFTIVEESEGSGAPIWGRLKSGAGWIGIDPSWSVR | -0.524
HMQGTTTELLIQKSALYEELNDPEKALNAMFDAFEMDSLNVNVLHRIVSLLLDKEENEKAILYNQLIIDH | -0.507
HMINIDESIDESLSEDDAVLDLLERASASFTKAQEALLEGDLGRYQTLIEQADRLVAKALELLDEKN | -1.34
HMRSSALDEIPGIGKQRKKNLLVHFTSVAKIKEASLDEIAAVPGMNRKAALVVVEFFQNQERE | 0.158
HMRNANENTLKDLPVAVPNIHVSNIEEKKDFHLIQLEYSQEFDPREDLFNFAVNSSWVILKMTPT | ≥ 0.43
HMQPQIDFEIDVEVRASSLRIVAAPNSDVLVATVGRGEHVVQLTYPKDGWVMIRTADDRVGFVPESLLL | -0.254
HMQVTPQVLRLLDVLGDKELSLRQIAEALGLSDRKNIMRNYVVPALDSGRVVRTVPNKPNSRFQKYRK | 0.0808
HMAAIPEQVSEEVVSAVKASGIDPGKVTKEQWTSLLKGRRTALGSSSGKLFMLSKAPVGYTLKAVNA | -0.000834
HMSGIQNNFITRLKKVLAPTIGIAEEISDLLNISIDSAYRRIRGETDFTFEEIYIITRKHKISIDEIYG | -2.14
HMNIEEAESILKEIKTVLTDKEYEVYTLRAKGFTYQEIASLLNTTTKSVDGALSRIKTKINNIK | 0.0204
